Test results taken from the supplement of paper PMC12042874.
± gives the uncertainty stated by the source.

Test: amyloid nucleation score (Sup35N fusion, yeast selection) (log enrichment); library NNK3; higher = more nucleation; inactive = no reads after selection
Summary of the method: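 The nucleation score is the DiMSum log enrichment of output over input reads, centred on the mode score of non-aggregating sequences. Only sequences with 100 or more input reads were scored, using Illumina sequencing of input and output plasmid inserts. Psi-negative yeast expressing Sup35N fused to peptides of 20 random codons were induced 24 hours with 100 μM copper sulfate and grown 7 days at 30°C on medium lacking adenine and uracil.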
For NFSPHTFVSNSM, the amyloid nucleation score was “inactive”.
For KLILFLTRVFRSFQVSWRQF, the amyloid nucleation score was “inactive”.
For MGYPTISFCFNVYAFSVRIV, the amyloid nucleation score was 0.697 ± 0.2.
With FAAAFDRGQGKS the amyloid nucleation score was “inactive”.
SQSFYLFLGQRSRTY showed an amyloid nucleation score of 1.33 ± 0.11.
In the case of WLDRVY, the amyloid nucleation score is reported as “inactive”.
For LCHICDAVTSYLLP, the amyloid nucleation score was -0.406 ± 1.
In the case of HIKVVRPRSRCDLLGSPISQ, the amyloid nucleation score is reported as “inactive”.
Substance FLSLIKM has an amyloid nucleation score of 0.39 ± 0.2.
For YYNDSPAFHLRVR, the amyloid nucleation score was “inactive”.
For RGMKDCCTRWALRYWDVSVL, the amyloid nucleation score was “inactive”.
For ELNRDDCEGSSATPQRDFNV, the amyloid nucleation score was “inactive”.
In the case of TSGDMRAVYGLYREIRLVNT, the amyloid nucleation score is reported as “inactive”.
For EWLGNCRNDCVMWLCYNMAS, the amyloid nucleation score was “inactive”.
In the case of LVNLAELDFVECCLENKMQW, the amyloid nucleation score is reported as “inactive”.
For HLRKVCGGFM, the amyloid nucleation score was “inactive”.
In the case of LASPVNETDTLHRALQMLSK, the amyloid nucleation score is reported as “inactive”.
With PIAHFM the amyloid nucleation score was “inactive”.
In the case of KSCLGKRLISSFC, the amyloid nucleation score is reported as “inactive”.
In the case of RNKVKQTE, the amyloid nucleation score is reported as “inactive”.
For NVASM, the amyloid nucleation score was “inactive”.
For SKVMVHVIWEIVILFMKSKI, the amyloid nucleation score was “inactive”.
For VSHNSCGQTAESLNNFKTWS, the amyloid nucleation score was “inactive”.
In the case of YRLQSLNPPISPVNHTNCSS, the amyloid nucleation score is reported as “inactive”.
For RINSVQGDGVLNLCPRLRVP, the amyloid nucleation score was “inactive”.
With IFVCKRLMRGLVR the amyloid nucleation score was “inactive”.
With TDTRNINV the amyloid nucleation score was “inactive”.
In the case of NEDST, the amyloid nucleation score is reported as “inactive”.
For VSYEWPSQMFRPRVPLALAT, the amyloid nucleation score was “inactive”.
In the case of EIRMRMIKRFVYD, the amyloid nucleation score is reported as 1.16 ± 0.17.
In the case of DSLTDVMTWELWDIYHVKHE, the amyloid nucleation score is reported as “inactive”.
With YSLRVHSAYIVVKYII the amyloid nucleation score was “inactive”.
With NCVRSLCMLWTTFTCVNDLC the amyloid nucleation score was 2.1 ± 0.079.
For PDFNLWRTEMLSYNGWK, the amyloid nucleation score was “inactive”.
For SELHK, the amyloid nucleation score was “inactive”.
For IRLVMETLGNLGIADKSMRV, the amyloid nucleation score was “inactive”.
With KFGWWLFDSVSDTNLWYRRS the amyloid nucleation score was “inactive”.
With YRLRNSS the amyloid nucleation score was “inactive”.
In the case of DDGSLDLMTKTA, the amyloid nucleation score is reported as “inactive”.
With IAMWDAMCFYWKIMSGSIMV the amyloid nucleation score was “inactive”.
For KGSHFFAIFGW, the amyloid nucleation score was “inactive”.
In the case of RHAYQRWLIFC, the amyloid nucleation score is reported as “inactive”.
Substance FDRAFYNHWFSCGFPEGWHT has an amyloid nucleation score of 0.501 ± 0.17.
For SCWRNLYSFLRKGSYSRCM, the amyloid nucleation score was “inactive”.
YLIGYDT gave an amyloid nucleation score of 0.366 ± 0.65.
With KQSLSMVWRKSDLALKVMVG the amyloid nucleation score was 0.904 ± 0.15.
For LLGRSLH, the amyloid nucleation score was “inactive”.
With YFFSDNRNFRVNPVSNR the amyloid nucleation score was “inactive”.
With RFCAFERG the amyloid nucleation score was “inactive”.
For FVRSQSCS, the amyloid nucleation score was “inactive”.
With PVLEYKVL the amyloid nucleation score was “inactive”.
In the case of AGSCVMFGPSW, the amyloid nucleation score is reported as “inactive”.
For MTVRETLYWVRS, the amyloid nucleation score was “inactive”.
With HSYTVWLVNMS the amyloid nucleation score was 2.35 ± 0.077.
Substance YIQSNCEFMHPVCIIIFACV has an amyloid nucleation score of 1.16 ± 0.11.
In the case of ILRCVFRGYMYYVMGSFYLT, the amyloid nucleation score is reported as “inactive”.
In the case of TASTQSPYHFYCRV, the amyloid nucleation score is reported as “inactive”.
In the case of YDWSVPAKSS, the amyloid nucleation score is reported as “inactive”.
With LGVPSIPGT the amyloid nucleation score was “inactive”.
In the case of SYSHYFILHHLRDSELSHCS, the amyloid nucleation score is reported as “inactive”.
For LDFSPWKFSTVGSRSSGMNG, the amyloid nucleation score was “inactive”.
For RKGTWPHLGTVNRRVQRWVY, the amyloid nucleation score was “inactive”.
With MRLYLFSRYPLARTTFMSTC the amyloid nucleation score was “inactive”.
For AIMFLFLYTRGAYAYYLGLL, the amyloid nucleation score was “inactive”.
For YRGLGRDSHTHCRNHVLLTL, the amyloid nucleation score was “inactive”.
For VTLADEDGYKFLTLVKVLTY, the amyloid nucleation score was “inactive”.
With AGAVVDV the amyloid nucleation score was “inactive”.
For LDILTDAFQLLCNKKHNNKP, the amyloid nucleation score was “inactive”.
With NTRMDNLTNAWRAQYALSP the amyloid nucleation score was “inactive”.
For VQIRAANLTYNRQCQSHLFS, the amyloid nucleation score was “inactive”.
For GFYAE, the amyloid nucleation score was “inactive”.
With HNPLVRFAQHLLITEDQCMN the amyloid nucleation score was “inactive”.
With GGLCRGYQDMIMLWNMLQKQ the amyloid nucleation score was “inactive”.
In the case of VQSSIESLPDPIFRYLQSIS, the amyloid nucleation score is reported as “inactive”.
In the case of TAQFDNSCSGLQHVVVNK, the amyloid nucleation score is reported as “inactive”.
In the case of CLCNRDRLSSNFGGMTDKLH, the amyloid nucleation score is reported as “inactive”.
With CNRVPVFFMFYVEQGVLRWN the amyloid nucleation score was 2.13 ± 0.081.
With YLDKCIVVCFRVRNSNSFWL the amyloid nucleation score was 2.42 ± 0.065.
In the case of WPLYGLDWNPLGFNLRWYKF, the amyloid nucleation score is reported as “inactive”.
For SWFGGRDYYKMHIVSG, the amyloid nucleation score was “inactive”.
In the case of WNLLWLLFFLCLCHCGIMWK, the amyloid nucleation score is reported as “inactive”.
For VHGIRSELDRYLMNTNSTEL, the amyloid nucleation score was “inactive”.
For HFHSVIELVYG, the amyloid nucleation score was “inactive”.
With QHTAFLRKVSPSLRG the amyloid nucleation score was “inactive”.
With LVVNRDYFCRSVGPIVLLEP the amyloid nucleation score was “inactive”.
With SFAGYRQIGRQGVWVIQVRH the amyloid nucleation score was “inactive”.
With MYLVR the amyloid nucleation score was “inactive”.
For GRCFKFCNLDT, the amyloid nucleation score was “inactive”.
For FKAMTFAYGYLTVGLSVVGV, the amyloid nucleation score was “inactive”.
With KFSCSDNPE the amyloid nucleation score was “inactive”.
In the case of GGHVSRRLHF, the amyloid nucleation score is reported as “inactive”.
In the case of KLGKESRSFLMTTRNVDRRF, the amyloid nucleation score is reported as 1.43 ± 0.11.
In the case of SEGDLKYVW, the amyloid nucleation score is reported as “inactive”.
In the case of AVATCP, the amyloid nucleation score is reported as “inactive”.
For DSKGIFYFFGLVSLY, the amyloid nucleation score was “inactive”.
With YWVLRFRSSCGYSRMRLGPR the amyloid nucleation score was “inactive”.
With NGDHRRCSLIT the amyloid nucleation score was “inactive”.
With MSGNA the amyloid nucleation score was “inactive”.
For ISYVKFY, the amyloid nucleation score was “inactive”.
With CQLLHMELDNARRCEIKKPA the amyloid nucleation score was “inactive”.
In the case of FFTSTLLSRPNVPNIYSISR, the amyloid nucleation score is reported as “inactive”.
In the case of RVSGEMFASSL, the amyloid nucleation score is reported as “inactive”.
For FFVYHTILRLPNGAGLRCGP, the amyloid nucleation score was “inactive”.
With PDRCFD the amyloid nucleation score was “inactive”.
For CRDNTGFCRGSAAVFNRCTG, the amyloid nucleation score was “inactive”.
For NRMQVMLSVVRSSLFVWMQW, the amyloid nucleation score was “inactive”.
With FYRCLLNH the amyloid nucleation score was “inactive”.
RVGAVMVEGRFLYHA showed an amyloid nucleation score of 0.522 ± 0.38.
For NFINYLR, the amyloid nucleation score was “inactive”.
For LLVANG, the amyloid nucleation score was “inactive”.
For LLRKRHVLNTK, the amyloid nucleation score was “inactive”.
In the case of TDCFGLMSSALP, the amyloid nucleation score is reported as “inactive”.
In the case of LVKRCVVGFTHFPTIYTCIQ, the amyloid nucleation score is reported as “inactive”.
For FPWSSRATRSGEVTV, the amyloid nucleation score was “inactive”.
With SGLKVCYNYEDGRMVSLGYH the amyloid nucleation score was “inactive”.
In the case of AAEDRSWSHPATQFLLVVRQ, the amyloid nucleation score is reported as “inactive”.
Work on VERSSLVEWSCDRVSKWYFV yielded an amyloid nucleation score of 0.298 ± 0.74.
For DMGKKSSLGNKWVIREAHMG, the amyloid nucleation score was “inactive”.
CFLAENILFSN showed an amyloid nucleation score of 0.024 ± 0.64.
For CHFPG, the amyloid nucleation score was “inactive”.
With NHRYMMVTATRIKWDGVSWN the amyloid nucleation score was “inactive”.
In the case of NLVSQK, the amyloid nucleation score is reported as “inactive”.
In the case of ARSDVSCPWSGRMATVCLTV, the amyloid nucleation score is reported as “inactive”.
For GACTHGRSSCDKIYLRYSYG, the amyloid nucleation score was “inactive”.
For FGYNYLCTFSFIISMVHVRF, the amyloid nucleation score was “inactive”.
In the case of LRGYSASSSIVCESSRYARL, the amyloid nucleation score is reported as “inactive”.
For CYRRSYASKLSDV, the amyloid nucleation score was “inactive”.
Work on VFEAAALVCNCGTWDRGLND yielded an amyloid nucleation score of 1.79 ± 0.1.
For DVFHSCLAQFILYTP, the amyloid nucleation score was “inactive”.
For GDVLLY, the amyloid nucleation score was “inactive”.
For FVFIQSHYQNMRFGKF, the amyloid nucleation score was “inactive”.
SSSGY gave an amyloid nucleation score of -0.007 ± 1.
TSFWGGALEDSATITLECWF showed an amyloid nucleation score of -0.24 ± 1.3.
For SYISNP, the amyloid nucleation score was “inactive”.
With LSCFNSVAHCDVNSGMFQIV the amyloid nucleation score was “inactive”.
Work on IRSVKISSGYLLISYGDNNW yielded an amyloid nucleation score of 0.687 ± 0.18.
With IYYSRHEYSDCV the amyloid nucleation score was “inactive”.
In the case of FEFKSIGNRLGSYTQASWFA, the amyloid nucleation score is reported as “inactive”.
In the case of SRVSPMFKIRIWNWIPAWAT, the amyloid nucleation score is reported as “inactive”.
For INTGQMQSAYETNLVMRKLA, the amyloid nucleation score was “inactive”.
For YTCNSWILDANNLANEPVSK, the amyloid nucleation score was “inactive”.
For SHSAFEGKVC, the amyloid nucleation score was “inactive”.
In the case of VWVFYWDKLRKF, the amyloid nucleation score is reported as “inactive”.
For GRMFVNVNFAIQCYMAFTYL, the amyloid nucleation score was 2.42 ± 0.071.
In the case of SSYGSPIIVLNTHSTVGIRI, the amyloid nucleation score is reported as 1.59 ± 0.11.
For GNSDR, the amyloid nucleation score was “inactive”.
With IQLMLFIDCLSENCYVWLRY the amyloid nucleation score was “inactive”.
In the case of RVTIVPTKHHLML, the amyloid nucleation score is reported as “inactive”.
Substance TYFVVDGYVGMFCLIGDISS has an amyloid nucleation score of 2.69 ± 0.052.
In the case of VRFVSYRLVGSV, the amyloid nucleation score is reported as “inactive”.
Substance VKISYDKSRHVCLCGFSSM has an amyloid nucleation score of 2.37 ± 0.077.
For VLTLIFFYFRISCICPFLL, the amyloid nucleation score was “inactive”.
With ACYAAQCWSNF the amyloid nucleation score was “inactive”.
For ADPDVR, the amyloid nucleation score was “inactive”.
For SWNTL, the amyloid nucleation score was “inactive”.
For DIVILSTSASSTS, the amyloid nucleation score was “inactive”.
In the case of LRDMTGILPRGRFADETSRF, the amyloid nucleation score is reported as “inactive”.
With CYSPQFVCYATGHVKSDLML the amyloid nucleation score was “inactive”.
Substance SLALFFGIHPNLCFTDTSST has an amyloid nucleation score of 0.559 ± 0.2.
For VPNDKVGKLRIMGREWVRSH, the amyloid nucleation score was “inactive”.
For RHSQFTVVFCNRGRCAGLAA, the amyloid nucleation score was “inactive”.
In the case of QDTLVPYMFKQITVYVYGLA, the amyloid nucleation score is reported as “inactive”.
For NGVCTVNVTFCYMV, the amyloid nucleation score was 2.23 ± 0.058.
